# Laboratory results from patent US20080138280A1, “Composition and Methods For Inhibiting Cell Survival” (The Cleveland Clinic Foundation, priority 2003, published 2008).
# Tests used:
# [1] = tested on: NF-κB DNA binding activity; test: Electrophoretic mobility shift assay (EMSA) of NF-κB DNA binding activity, A375 cells; type: cell-based, human; details: NO donor 100 μM pre-treatment 16 h, Apo2L/TRAIL 100 ng/ml 1 h
# Description: Electrophoretic mobility shift assay (EMSA). These methods apply generally to FIGS. 5, 9-10 which employ EMSA analysis. In FIG. 5, A375 cells were treated with NO donors (NO-Cbl, NOC-18, SNAP, 100 μM, 16 h), or with Apo2L/TRAIL (100 ng/ml) or TNF-α (20 ng/ml) for 1 h, or with the combination of NO donors (16 h) followed by Apo2L/TRAIL or TNF-α (1 h). Plates were washed twice with ice-cold PBS. Cells were resuspended in cold 1× lysis buffer (20 mM HEPES, 20 mM NaF, 1 mM Na3VO4, 1 mM EDTA, 1 mM DTT, 100 mM NaCl, 10% glycerol and protease inhibitors) and incubated on ice for 30 min followed by centrifugation at 4° C. at 10,000 rpm for 10 min. Supernatants were transferred to fresh tubes and protein concentrations were assessed using the Bradford method (Bio-RAD protein assay, BioRad, Hercules, Calif.). The NF-κB consensus binding sequence (5′[…] 3′) from the IFN-β gene promoter was end-labeled with γ^32P dATP ([…]) using T4 polynucleotide kinase. DNA binding reactions were performed in 20 μl volume containing 10 μg protein, 20 mM HEPES, 10 mM KCl, 0.1% NP-40, 0.5 mM DIT and 10% glycerol. The binding reaction was performed for 20 min at 25° C. Complexes were separated from the free probe on 6% non-denaturing polyacrylamide gels in 0.5×TBE buffer at 200 V for 2 h. Gels were dried and exposed to film.
# Inhibition of NF-κB survival signaling by NO-Cbl. Because NF-κB is an important cell survival regulator, we examined the effects of NO-Cbl on NF-κB DNA binding activity. The NF-κB binding sequence from the IFN-β gene promoter was used as a probe to assess DNA binding activity. A375 cells were treated with TNF-α (20 ng/ml), Apo2L/TRAIL (100 ng/ml) or NO-Cbl (100 μM). FIG. 5, illustrates an Electrophoretic Mobility Shift Assay (EMSA) of NF-κB DNA binding activity. Pre-treatment of A375 cells with NO-Cbl inhibited the NF-κB DNA binding activity induced by Apo2L/TRAIL and TNF-α. […] NF-κB-luc transfected A375 cells were pre-treated with NO-Cbl followed by Apo2L/TRAIL or TNF-α. […] Cell lysates were analyzed for NF-κB-luc reporter activity. […]
# [2] = tested on: phospho-IκBα in A375 cells; test: Western blot analysis of IκBα phosphorylation; type: cell-based, human; details: pre-treatment 100 μM, Apo2L/TRAIL 100 ng/ml
# Description: Gel Electrophoresis and Immunoblot analyses. Please see FIG. 4. Whole cell lysates were prepared in 1× lysis buffer (50 mM Tris-Cl, pH 8.0, 1% Triton×100, 10% glycerol, 1 mM EDTA, 250 mM NaCl, 1 mM DTT, 1 mM PMSF, 10 μg/ml aprotinin, 10 μg/ml leupeptin, and 10 μg/ml pepstatin) for subsequent immunoblotting studies. The SDS-PAGE was conducted by using the Laemmli buffer system and 12% polyacrylamide gels. Proteins were transferred onto PVDF membranes by the semidry method (Trans Blot SD, BioRad, Hercules, Calif.). Binding of the primary and secondary antibodies was performed according to standard protocols. Membranes were immunoblotted with pAb to caspase-3, caspase-8, XIAP (BD-Pharmingen, San Diego, Calif.), PARP (BioMOL, Plymouth Meeting, Pa.), cIAP-1, FLIP, pIκBα and IκBα (Cell Signaling, Beverly, Mass.) followed by incubation with HRP conjugated secondary antibodies (Pierce, Rockford, Ill.). Immunoreactive bands were visualized by using enhanced chemiluminescence (Perkin Elmer, Boston, Mass.). Equal protein loading was confirmed by reprobing with monoclonal anti-actin antibody (Sigma Chemicals Co, St. Louis, Mo.). All immunoblots in this study were repeated 3 times with reproducible results.
# NO-Cbl treatment affected the phosphorylation state of IκBα, the prototypic inhibitor of NF-κB. Western blot analysis was performed to assess levels of phospho-IκBα and IκBα. FIG. 6 is a Western blot analysis of IκB levels and IκBα phosphorylation. IκBα and phospho-IκBα protein levels were determined in A375 whole cell lysates. […] NO-Cbl, NOC-18, and SNAP pre-treatment all inhibited Apo2L/TRAIL-induced IκBα phosphorylation.
# [3] = tested on: NF-κB signaling; test: Inhibition of NF-κB signaling by NO donors; type: cell-based; details: summary statement
# Excerpt: SNAP, SNP (nitroprusside) and NOC-18 inhibit NF-κB signaling.
# [4] = tested on: CMN1 (normal melanocytes); test: Sulforhodamine B cell growth assay, normal cells; type: cell-based, human
# Description: (§1) Cell Culture treatments. Cells were maintained in RPMI or DMEM (Mediatech, Herndon, Va.) containing 5% fetal bovine serum (Hyclone, Logan, Utah) and 1% Antibiotic-Antimycotic (GEBCO, Invitrogen Carlsbad, Calif.) as recommended per the American Type Culture Collection media protocol for each cell line. Cells were maintained in 5% CO2 at 37° C. in a humidified tissue culture incubator. Primary non-tumorigenic […] cell lines (DMN-1 and CMN-1), and human foreskin fibroblasts (HFF; CCF, Cleveland, Ohio) were cultured in DMEM-F12 medium supplemented with 10% FBS. Cells were confirmed as mycoplasma free.
# (§2) Sulforhodamine B Cell Growth Assay. Cells were harvested with 0.5% trypsin/0.53 mM EDTA, washed with PBS and resuspended in media containing 10% FBS. Cells were plated in 96-well plates in 0.2-ml aliquots. Cells were allowed to adhere to the plate for 4 h and then NO-Cbl was added in different concentrations to the assay plate. A minimum of four were performed for each treatment. After 16 h, various chemotherapeutic agents including cytokines were added at different concentrations. Growth was monitored by the sulforhodamine B (SRB; Sigma Chemical, St. Louis, Mo.) colorimetric assay. After 36 h, the medium was removed, and the cells were fixed with 10% trichloroacetic acid and stained with SRB. Bound dye was eluted from the cells with 10 mM Tris-HCl (pH 10.5) and absorbance was measured at 570 nm using a Lab systems Multiskan RC 96-well plate reader (Lab Systems Multiscan RC, Thermo Lab Systems, Franklin, Mass.). To quantify the growth of the cells, the experimental absorbance values (Aexp) were compared with initial absorbance readings representing the starting cell numbers (Aini). To determine the starting cell number, an additional 96-well plate was seeded with cells and fixed at the beginning of the experiment. After 5 days growth, the untreated control cells and drug treated cells were fixed and stained with SRB. The absorbances derived from the initial plate and from the untreated cells at the end of the growth period (Afin) were defined as 0% and 100% growth, respectively. The percentage control growth (100%×[Aexp−Aini]/[Afin−Aini]) is expressed as a percentage of untreated controls.
# (§3) Anti-tumor effects of NO-Cbl, Apo2L/TRAIL, and the combination iii vitro. NO-Cbl enhances the anti-cellular effects of Apo2L/TRAIL against malignant Apo2L/TRAIL-resistant cell lines. First the antiproliferative effects of three melanoma lines A375, WM9, and WM3211 (previously reported to be resistant to Apo2L/TRAIL) were measured. Although Apo2L/TRAIL was used as the chemotherapeutic agents, a wide range of anti-cancer drugs and techniques would be enhanced by the NO based cobalamin compounds due to their effective inhibition of the cell survival mechanism. Such other chemotherapeutic agents are tested in the following examples. […] The SRB antiproliferative assay, used by the National Cancer Institute (NCI) to evaluate new chemotherapeutic agents was used herein. Median effect analysis was used to analyze drug interactions between NO-Cbl and Apo2L/TRAIL. Cells were pre-treated with NO-Cbl for 16 h followed by Apo2L/TRAIL for 24 h.
# (§4) The effects of nitrosylcobalamin (NO-Cbl), Apo2L/TRAIL, and the combination on the proliferation of melanoma cell lines A375, WM9, and WM3211 and normal cell lines CMN1, DMN1, and fibroblasts were observed. Cells were treated with NO-Cbl, Apo2L/TRAIL, or pre-treated with NO-Cbl followed by Apo2L/TRAIL for three days, and growth was measured by the colorimetric sulforhodamine B assay. Data points were generated to represent the mean of four replicates±standard error of the mean (SEM). Synergy between NO-Cbl and Apo2L/TRAIL was determined by median effect analysis, (combination index >1 indicates antagonism, =1 indicates additivity, and <1 indicates synergy). The combination index is represented in FIG. 1 and as the combination index observed at the specified concentrations. […]
# [5] = tested on: DMN1 (normal melanocytes); test: Sulforhodamine B cell growth assay, normal cells; type: cell-based, human
# Description: as §1, §2, §3, §4
# [6] = tested on: normal fibroblasts; test: Sulforhodamine B cell growth assay, normal cells; type: cell-based, human
# Description: as §1, §2, §3, §4
# [7] = tested on: A375 melanoma xenografts; test: Growth of subcutaneous A375 xenografts in nude mice; type: in vivo
# Excerpt: In vivo experiments. Please see FIG. 2. The Institutional Animal Care and Use Committee at the Cleveland Clinic Foundation approved all procedures for animal experimentation. Five week-old NCR male athymic nude homozygous (nu/nu) mice (Taconic, Germantown, N.Y.) were inoculated with A375 tumors. Each experimental group contained 4 mice, each mouse bearing two tumors, on opposite flanks. There were four experimental groups (untreated, single agents, and the combination). Cultured tumor cells (4×10^6) were inoculated into flanks in the mid-axillary line. NO-Cbl was given twice daily (50 mg/kg s.c.) and recombinant trimeric Apo2L/TRAIL (50 mg/kg s.c.) was administered every other day, starting on day 2. Tumor volume was measured three times a week using the formula for a prolate spheroid: (4/3) πab^2 where 2a=major axis, 2b=minor axis. Formalin-fixed sections were processed by the Cleveland Clinic Histology Core. Sections were stained with hematoxylin and eosin and evaluated for pathologic changes in a blinded fashion.
# Anti-tumor effects of NO-Cbl, Apo2L/TRAIL, and the combination in vivo. To test drug activity in vivo, subcutaneous A375 xenografts were inoculated in nude mice. FIG. 2. illustrates the effect of NO-Cbl, Apo2L/TRAIL and the combination on the growth of A375 melanoma xenografts. NCR male athymic nude (nulnu) mice (n=4 per group) were injected subcutaneously with 4×10^6 A375 cells. Drug treatments began on day two (2) after injection of tumor cells. NO-Cbl was administered twice daily for the duration of the study. Apo2L/TRAIL was administered every other day. The control mice received phosphate buffered saline. The tumor volume was measured three times per week. Data points represent the mean tumor volume (in cubic mm)±SEM. Daily drug treatments began on day 2 following implantation, at which time tumors were both visible and palpable. Untreated control tumors grew unimpeded. After 25 days, the tumors from mice treated with NO-Cbl were 67.4% smaller than the control tumors (p≦0.0002) and tumors from mice treated with Apo2L/TRAIL were 89.4% smaller than the control tumors (p≦0.00001). The tumors from mice treated with the combination of NO-Cbl and Apo2L/TRAIL were 95.7% smaller than the control tumors (p≦0.000005).
# [8] = tested on: A375 cells; test: TUNEL apoptosis assay; type: cell-based, human; details: single agent, 36 h; NO-Cbl 100 μM or Apo2L/TRAIL 100 ng/ml
# Description: TUNEL assay. Please see FIG. 3. A375 cells were cultured for 36 h and exposed to various treatments (control, NO-Cbl, Apo2L/TRAIL and NO-Cbl+Apo2L/TRAIL. Apoptotic cells were detected by TUNEL (terminal deoxynucleotidyltransferase-mediated dUTP-biotin nick end-labeling) staining using a commercially available kit (APO-BRDU kit, BD-Pharmingen, San Diego, Calif.). Cells were processed according to the manufacturer's recommended protocol. The percentage of FITC-positive cells was analyzed by fluorescent activated cell scanning (FACS, Becton Dickinson, Facsvantage, San Diego, Calif.).
# Cell line A375 has a defect in endogenous TRAIL gene induction therefore, additive cellular responses from exogenous TRAIL/Apo2L were avoided. TUNEL assays of A375 cells treated in vitro with NO-Cbl, Apo2L/TRAIL, or the combination were performed. FIG. 3 illustrates a TUNEL apoptosis assay in accordance with the present invention. A375 cells were treated with NO-Cbl, Apo-2L/TRAIL, and the combination. […] The highest levels of apoptosis were observed when cells were pre-treated with NO-Cbl followed by Apo2L/TRAIL treatment. Treatment for 36 h with NO-Cbl (100 μM) or Apo2L/TRAIL (100 ng/ml) induced 6.2% and 5.4% TUNEL-positive cells, respectively.
Molecule,NF-κB DNA binding activity induced by Apo2L/TRAIL [1],IκBα phosphorylation induced by Apo2L/TRAIL [2],NF-κB signaling [3],antiproliferative effect on normal cells [4],antiproliferative effect on normal cells [5],antiproliferative effect on normal cells [6],"tumor regression ([7]; A375 xenografts, nude mice)","tumors smaller than the control tumors ([7]; after 25 days, NO-Cbl 50 mg/kg s.c. twice daily, Apo2L/TRAIL 50 mg/kg s.c. every other day, from day 2)",TUNEL-positive cells [8]
"CC(=O)NC(C(=O)O)C(C)(C)SN=O (racemic) [SNAP, S-nitroso-N-acetyl-D,L-penicillamine, reference compound]",inhibited,inhibited,inhibit,–,–,–,–,–,–
"Apo2L/TRAIL: tumor necrosis factor-related apoptosis-inducing ligand; trimeric recombinant human Apo2L/TRAIL (Genentech) (protein, UniProt P50591 1-281, looked up) Tumor necrosis factor ligand …: MAMMEVQGGPSLGQTCVLIVIFTVLLQSLCVAVTYVYFTNELKQMQDKYSKSGIACFLKEDDSYWDPNDEESMNSPCWQVKWQLRQLVRKMILRTSEETISTVQEKQQNISPLVRERGPQRVAAHITGTRGRSNTLSSPNSKNEKALGRKINSWESSRSGHSFLSNLHLRNGELVIHEKGFYYIYSQTYFRFQEEIKENTKNDKQMVQYIYKYTSYPDPILLMKSARNSCWSKDAEYGLYSIYQGGIFELKENDRIFVSVTNEHLIDMDHEASFFGAFLVG",–,–,–,completely resistant,completely resistant,completely resistant,Tumor regression was observed,89.4%,5.4%
